In patent publication US20250051443A1 (NATIONAL RESEARCH COUNCIL OF CANADA, published 2025):
Numbering of substitutions follows the chain as printed.

B1: F282-2D5 (antibody, V domains shown)
VH: QVQLQQPGTELVKPGASVKLSCKASGYTFTSYWMHWVKQRPGQGLEWIGNINPSNGGTNYNENFKTKATLTVDKSSSTAYMQLSSLTSEDSAVYYCARDRSGQYYFDYWGQGTTLTVSS
VL: DIVMSQSPSSLAVSAGEKVTMSCKSSQSLLNSRTRKNYLAWYQQKPGQSPKLLIYWASTRESGVPDRFTGSGSGTDFTLTISSVQAEDLAVYYCIQSYHLRTFGGGTILEIK
notes: also called F282-2D5-2
B2: F332-7C5 (antibody, mouse IgG2a, V domains shown)
VH: QVQLQQPGAELGKPGTSVKLSCKASGYTFTSYWMHWVKQRPGQGLEWIGNINPSSGITNYNERFKNKATLTVDKSSTTAYMQLSILTSEDSAVYYCSRDISGQYYFNFWGQGTTLTVSS
VL: B1 VL with S71T, I95K, H99N, I108K
notes: also called F332-7C5-2; F332-7C5 (5E12, 10A8)
B3: F332-5F2 (antibody, mouse IgG2b, V domains shown)
VH: QVQLQQPGAELGKPGTSVKLSCKASGYTFTSYWMHWVKQRPGQGLEWIGNINPNGGDSNYNEKFKSKATLTVDKSSSTAYMQLSTLTSEDSAVYYCTRDISGQYYFDFWGQGTSLTVFS
VL: B1 VL with V3L, K18Q, Y55F, E61K, D76Y, I95T, H99N, I108K
notes: also called F332-5F2-2; F332-5F2 (6G8, 13A3)
B4: F332-3E9 (antibody, mouse IgG2a, V domains shown)
VH: QVQLQQPGAELGKPGTSVKLSCKASGYTFTSYWIHWLKQRPGQGLEWIGNINPNGGSINCNEKFTTKATLTIDKSSSTAYMQLSTLTSEDFAVYYCTRDTSGQYYFDYWGQGTTLTVSS
VL: B1 VL with V3M, I95T, I108K
notes: also called F332-3E9-2; F332-3E9 (12G4)
B5: F332-1E2 (antibody, mouse IgG2a, V domains shown)
VH: B4 VH with L37V, I48V, G55S, C60Y, T65K, T66N, I72V
VL: B1 VL with K18R, I108K
notes: Sister clone 8C5 shares the same entries; also called F332-1E2-2; F332-1E2 (8C5)
B6: F332-1C9 (antibody, mouse IgG2a, V domains shown)
VH: B3 VH with K19N, E46D, G55S, D57T, S58T, F108Y, F118S
VL: B1 VL with T80I, I95K, H99S, I108K
notes: Sister clones 1A10, 5H8, 8B11 share the same entries; also called F332-1C9-2; F332-1C9 (1A10, 5H8, 8B11)
B7: F332-4D6 (antibody, mouse IgG2a, V domains shown)
VH: B4 VH with P7S, L37V, G55S, I58T, C60Y, T65K, T66R, I72A
VL: B1 VL with L52V, I95K, I108K
notes: also called F332-4D6-2; F322-4D6
B8: F332-6D7 (antibody, mouse IgG2a, V domains shown)
VH: B3 VH with K19N, E46D, G55S, D57T, S58T, F108Y, F118S
VL: B1 VL with I95K, H99S, T107S, I108K
notes: also called F332-6D7-2; F332-6D7 (7G4)

Molecular target: T1, human CD3 (human, UniProt P07766 23-207; P09693 23-182; P04234 22-171)
T1 construct: whole, on cells; also called CD3 on Jurkat T cells; CD3 on primary human T cells
Test: flow competition on Jurkat, 100 nM unlabeled mAb; competitor AF488-SK7 1.5 nM
Description: (§1) In order to evaluate whether anti-CD3 monoclonal antibodies bind to the same epitope region, flow cytometry competition experiments on Jurkat cells were performed.
(§2) To that effect, a fixed concentration of the indicated AF488-labeled mAb were incubated with 100 nM of unlabeled monoclonal antibodies to assess if their binding capacity was impaired in presence of unlabeled mAbs. […] The AF488-OKT3 mIgG2b was labeled in-house using AlexaFluor488 protein labelling kit (Invitrogen #A10235) following manufacturer's instruction. The free dye removal step was done using Zeba™ Spin Desalting Columns, 7K MWCO (Thermo Scientific #89890). The final product was analyzed by UPLC-SEC to ensure the integrity of the labeled mAb.

Row | % residual fluorescence of labeled mAb [%] | Binder
1 | 42 | B1
2 | 39 | B2
3 | 49 | B3
4 | 45 | B4
5 | 42 | B5
6 | 45 | B6
7 | 44 | B7
8 | 44 | B8

Molecular target: T1, human CD3
Test: apparent KD (KDapp), flow cytometry titration on Jurkat cells
Description: Unless otherwise stated, all media are kept are 4° C. and all incubations are performed on wet ice. Exponentially growing Jurkat cells were centrifuged and resuspended in complete medium at a cell density of 2×10⁶ cells/mL. Fifty μL/well of cells were distributed in a polypropylene v-bottom 96 well plate and serial 1/3 dilutions of purified mAbs starting at 300 nM were added and incubated for 2 hours. Cells were washed twice by centrifugation and further incubated with a FITC labeled F(ab′)2 goat anti-mouse antibody (Fc specific, #115-096-071, Jackson Immunoresearch, Cedarlane, Burlington, ON) for an hour. Cells were washed and re-suspended in medium containing Propidium iodide to exclude dead cells from analysis. Samples were filtered through a 60 μm nylon mesh filter plate (Millipore, Ireland) to remove cell aggregates. Flow cytometry analyses were performed on 2,000 viable single-cells events gated on forward scattering, side scattering parameters and propidium iodide dye exclusion using a BD-LSRFortessa flow cytometer (Becton-Dickinson Biosciences, CA, USA) and a standard filter set using BD FACSDiva™ acquisition software, according to manufacturer's instructions.

Row | Kd [nM] | Binder
9 | 0.3 | B1
10 | 0.6 | B2
11 | 0.4 | B3
12 | 0.5 | B4
13 | 0.3 | B5
14 | 0.5 | B6
15 | 0.5 | B7
16 | 0.8 | B8

Molecular target: T1, human CD3
Test: cell-based or functional assay

Row | % max ref. OKT3 (dTomato activation) [%] | EC50 of dTomato induction (CD69 promoter), Jurkat-CD69-dTomato cells, 24 h [µg/mL] | Binder
17 | 98 | 0.13 | B1
18 | 102 | 0.23 | B2
19 | 98 | 0.19 | B3
20 | 84 | 0.11 | B4
21 | 104 | 0.16 | B5
22 | 94 | 0.2 | B6
23 | 87 | 0.18 | B7
24 | 86 | 0.25 | B8

Molecular target: T1, human CD3
Test: flow competition on Jurkat, 100 nM unlabeled mAb; competitor AF488-OKT-3 mIgG2b 1.5 nM
Description: as §1, §2

Row | % residual fluorescence of labeled mAb [%] | Binder
25 | 78 | B1
26 | 79 | B2
27 | 90 | B3
28 | 79 | B4
29 | 77 | B5
30 | 89 | B6
31 | 78 | B7
32 | 89 | B8

Molecular target: T1, human CD3
Test: apparent KD (KDapp), flow cytometry titration on purified primary human T cells
Description: The binding characteristics of the purified anti-CD3 mAbs were assessed in titration studies on purified human primary T cells from different donor samples. Fresh ex vivo peripheral blood mononuclear cells (PBMCs) were obtained via density centrifugation over Ficoll-Paque using standard procedures and untouched T cell fractions obtained from PBMCs by negative pan-T cell selection and magnetic cell sorting. Starting from 300 nM concentrations of the anti-CD3 mAbs, eight point binding curves were generated from the resultant mean fluorescence intensity (MFI) values obtained through detection of labelled secondary antibody to bound CD3 in flow cytometry experiments (FIGS. 3A and 3B). Both commercial mouse anti-human CD3 mAb (OKT-3; Biolegend) and an in house generated IgG1 version of OKT-3 were employed as positive controls together with a non-specific mouse IgG serving as a negative binding control. Following curve fit analysis using one-site specific binding with Hill slope, the KDapp (concentration needed to achieve a half-maximum binding at equilibrium) for each mAb was calculated (Table 2).
Eight point binding titrations were performed with the anti-CD3 mAbs starting at either 300 or 100 nM on freshly purified human T cells obtained through negative selection from PBMC fractions. Briefly, 1×10⁵ human T cells (50 μL of staining buffer (SB; PBS/1% BSA/0.01% NaN3) were incubated with graded dilutions of the anti-CD3 mAbs in SB ([…]) for 2 hours at 4° C. in 96 w U-bottom plates, followed by plate washing with SB ([…]). Cell pellets were resuspended with 25 μL of a 0.25 mg/mL solution of the goat (Fab′)₂ anti-mouse IgG (H+L)− APC secondary antibody in SB, incubated at 4° C. (30 min.), washed 1× with SB, and resuspended for flow analysis. Recombinant anti-human OKT-3 IgG2b (in house produced) and non-specific mIgG were employed similarly as positive and negative controls respectively. 10K live events were acquired on a BD LSRFortessa flow analyzer and mean fluorescence intensities (MFI) calculated after subtraction of secondary antibody alone values. Using GraphPad Prism software, the data were analyzed using a one site specific binding with Hill slope non-linear regression model to calculate KDapp and BMax values (See Table 2).

Row | Kd [nM] | Binder
33 | 0.47 | B1
34 | 0.41 | B2
35 | 0.37 | B3
36 | 1 | B4
37 | 0.4 | B5
38 | 0.94 | B6
39 | 0.53 | B7
40 | 0.46 | B8

Molecular target: T1, human CD3
Test: flow competition on Jurkat, 100 nM unlabeled mAb; competitor AF488-UCHT1 5 nM
Description: as §1, §2

Row | % residual fluorescence of labeled mAb [%] | Binder
41 | 64 | B1
42 | 64 | B2
43 | 74 | B3
44 | 76 | B4
45 | 69 | B5
46 | 76 | B6
47 | 76 | B7
48 | 73 | B8

Molecular target: T1, human CD3
Test: flow cytometry, hybridoma supernatant on CD3+ Jurkat cells
Description: Cells were stained with either negative control mouse IgG (Jackson Immunoresearch cat #115-000-003) or an anti-GFP 3E6 mAb supernatant or tested hybridoma supernatant. Specific binding was reflected by the increase in the mean fluorescent intensity of antibody binding to Jurkat T-cells (FIGS. 1A to 1F, grey histograms) compared to the Jurkat CD3 negative cell line J.RT3-T3.5 (FIGS. 1A to 1F, open histograms). AF488 labeled positive control mAb OKT3 was also analyzed.

Row | MFI [MFI] | Binder
49 | 349 | B1
50 | 334 | B2
51 | 292 | B3
52 | 297 | B4
53 | 319 | B5
54 | 277 | B6
55 | 398 | B7
56 | 247 | B8

Molecular target: T1, human CD3
Test: cell-based or functional assay
Remark: another data set of the same source

Row | IC50, indirect ADC surrogate growth inhibition (anti-mouse-DM1) on Jurkat cells [nM] | Span, indirect ADC surrogate growth inhibition on Jurkat cells [%] | Binder
57 | 0.075 | 97 | B1
58 | 0.062 | 95 | B2
59 | 0.173 | 95 | B3
60 | 0.05 | 94 | B4
61 | 0.031 | 95 | B5
62 | 0.072 | 94 | B6
63 | 0.038 | 92 | B7
64 | 0.072 | 96 | B8

Molecular target: T1, human CD3
Test: flow competition on Jurkat, 100 nM unlabeled mAb; competitor AF488-SP34.2 20 nM
Description: as §1, §2

Row | % residual fluorescence of labeled mAb [%] | Binder
65 | 7 | B1
66 | 7 | B2
67 | 9 | B3
68 | 11 | B4
69 | 6 | B5
70 | 12 | B6
71 | 9 | B7
72 | 10 | B8
